# Measurements as given in patent publication US20180022822A1, “NOVEL ANTI-FIBROBLAST ACTIVATION PROTEIN (FAP) BINDING AGENTS AND USES THEREOF” (Mabimmune Diagnostics AG, priority 2016, published 2018).
# Numbering of substitutions follows the chain as printed.
# T1: transmembrane human FAP on FAP expressing HEK293 cells (Homo sapiens, UniProt Q12884)
# T1 construct: HEK293 cells were transduced with retrovirus encoding full length human FAP cDNA; host or cells: HEK293 (retroviral transduction, G418 selected)
# T1 sequence (Q12884 1-760): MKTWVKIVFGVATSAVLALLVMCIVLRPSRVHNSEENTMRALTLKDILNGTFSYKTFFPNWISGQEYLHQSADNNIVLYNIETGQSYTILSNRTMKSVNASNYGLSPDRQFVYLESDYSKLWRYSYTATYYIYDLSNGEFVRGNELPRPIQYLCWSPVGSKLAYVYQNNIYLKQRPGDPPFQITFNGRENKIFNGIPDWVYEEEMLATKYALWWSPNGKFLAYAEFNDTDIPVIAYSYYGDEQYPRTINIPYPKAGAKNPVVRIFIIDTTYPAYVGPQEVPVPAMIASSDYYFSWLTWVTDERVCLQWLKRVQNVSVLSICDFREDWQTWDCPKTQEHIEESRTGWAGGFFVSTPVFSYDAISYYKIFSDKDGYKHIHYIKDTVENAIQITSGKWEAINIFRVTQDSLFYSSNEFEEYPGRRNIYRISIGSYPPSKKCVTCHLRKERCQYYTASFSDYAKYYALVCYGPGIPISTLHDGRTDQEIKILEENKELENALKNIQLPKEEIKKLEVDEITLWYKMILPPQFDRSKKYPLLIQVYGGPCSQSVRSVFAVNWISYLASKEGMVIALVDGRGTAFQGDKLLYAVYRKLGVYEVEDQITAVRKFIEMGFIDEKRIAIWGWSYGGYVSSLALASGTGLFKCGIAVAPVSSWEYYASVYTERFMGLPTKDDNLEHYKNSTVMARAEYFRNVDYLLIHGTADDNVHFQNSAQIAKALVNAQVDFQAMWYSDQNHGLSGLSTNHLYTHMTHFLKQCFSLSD
# T2: directly coated FAP (FAP) (Homo sapiens, UniProt Q12884)
# T2 sequence (Q12884 1-760): T1 sequence (Q12884 1-760)
# T3: captured FAP (sFAP) (Homo sapiens, UniProt Q12884)
# T3 sequence (Q12884 1-760): T1 sequence (Q12884 1-760)
# B1: NI-206.59B4: human-derived recombinant anti-FAP antibody; VH SEQ ID NO: 8, VL SEQ ID NO: 10 (antibody, listed as Homo sapiens, V domains shown)
# VH: QVQLVQSGAEVKKPGASVKVSCKTSGYTFTDYYIHWVRQAPGQGLEWMGWINPNRGGTNYAQKFQGRVTMTRDTSIATAYMELSRLRSDDTAVYYCATASLKIAAVGTFDCWGQGTLVTVSS
# VL: SYELTQPPSVSVSPGQTARITCSGDALSKQYAFWFQQKPGQAPILVIYQDTKRPSGIPGRFSGSSSGTTVTLTISGAQADDEADYYCQSADSSGTYVFGTGTKVTVL
# B2: NI-206.17A6: human-derived recombinant anti-FAP antibody; VH SEQ ID NO: 24, VK SEQ ID NO: 26 (antibody, listed as Homo sapiens, V domains shown)
# VH: QVQLQESGPGLVRSTETLSLTCLVSGDSINSHYWSWLRQSPGRGLEWIGYIYYTGPTNYNPSLKSRVSISLGTSKDQFSLKLSSVTAADTARYYCARNKVFWRGSDFYYYMDVWGKGTTVTVSS
# VL: EIVLTQSPGTLSLSLGERATLSCRASQSLANNYLAWYQQKPGQAPRLLMYDASTRATGIPDRFSGSGSGTDFTLTISRLEPEDFAVYYCQQFVTSHHMYIFGQGTKVEIK
# B3: NI-206.22F7: human-derived recombinant anti-FAP antibody; VH SEQ ID NO: 12, VL SEQ ID NO: 14 (antibody, listed as Homo sapiens, V domains shown)
# VH: EVQLVETGGGVVQPGRSLRLSCAASGFSFSTHGMYWVRQPPGKGLEWVAVISYDGSDKKYADSVKGRFTISRDNSKNTVYLEMSSVRAEDTALYYCFCRRDAFDLWGQGTMVTVSS
# VL: SYVLTQPPSVSVSPGQTARITCSGDALPKKYAYWYQQKSGQAPVLVIYEDTKRPSGIPERFSGSSSGTMATLTISGAQVEDEADYYCYSTDSSGNYWVFGGGTEVTVL
# B4: NI-206.27E8: human-derived recombinant anti-FAP antibody; VH SEQ ID NO: 16, VL SEQ ID NO: 18 (antibody, listed as Homo sapiens, V domains shown)
# VH: EVQLVESGGGLVEPGGSLRLSCAASGFTFSDAWMNWVRQAPGKGLEWVGRIKTKSDGGTTDYAAPVRGRFSISRDDSKNTLFLEMNSLKTEDTAIYYCFITVIVVSSESPLDHWGQGTLVTVSS
# VL: SYELTQPPSVSVSPGQTARITCSGDELPKQYAYWYQQKPGQAPVLVIYKDRQRPSGIPERFSGSSSGTTVTLTISGVQAEDEADYYCQSAYSINTYVIFGGGTKLTVL
# B5: NI-206.12G4: human-derived recombinant anti-FAP antibody; VH SEQ ID NO: 20, VL SEQ ID NO: 22 (antibody, listed as Homo sapiens, V domains shown)
# VH: EVQLVESGGGLVKPGGSLRLSCAASGFTFSDYYMSWIRQAPGKGLEWISYISSGSSYTNYADSVKGRFTISRDNAKKSVYLEVNGLTVEDTAVYYCARVRYGDREMATIGGFDFWGQGTLVTVSS
# VL: B4 VL with E26A, K38S, R51S, Q52E, Y91D, I93G, N94G, Y96S, V97R
# Experiments:
# [1] = biological target: T1, transmembrane human FAP on FAP expressing HEK293 cells; assay: flow cytometry of Cy5 labelled antibodies on FAP-HEK293 cells in pH adjusted PBS; assay type: cell-based; details: pH 7.4 to 6.2; 0.1-100 nM Cy5 labelled antibody
# Experimental: To evaluate the binding of NI-206.82C2, NI-206.59B4, NI-206.27E8, NI-206.12G4, NI-206.18H2 and NI-206.6D3 to transmembrane human FAP, an FAP expressing HEK293 cell line was received from the National Institutes of Health, Bethesda, Md. The generation of this FAP expressing HEK293 cells is described in: J. Exp. Med. 2013 Vol. 210 No. 6 1125-1135. HEK293 cells were transduced with retrovirus encoding full length human FAP cDNA. Cloning was performed using Fast Cloning Pack and FastDigest restriction enzymes (both from Fermentas). Transient retroviral supernatants were generated by transfecting 293GP cells with the FAP plasmid using Lipofectamine 2000 (Invitrogen). Retroviral supernatants were collected at 48 h after transfection and centrifuged onto Retronectin-coated (10 μg/ml; Takara), non-tissue culture-treated 6-well plates at 2,000 G for 2 h at 32° C. These retroviral supernatants where then used to transduce HEK293 cells overnight. Transduced FAP-HEK293 cells were selected with 1 mg/ml G418 (CellGro).
# 500′000 FAP-HEK293 cells were incubated for 1 hr at 4° C. either with Cy5 labelled NI-206.82C2, NI-206.59B4, NI-206.27E8, NI-206.12G4, NI-206.18H2 or NI-206.6D3 or with Cy5 labelled 43A11 at four different antibody concentrations (0.1, 1, 10, and 100 nM) in seven different pH-adjusted PBS buffers (pH 7.4, 6.8, 6.6, 6.5, 6.4, 6.3 and 6.2). PBS buffers were adjusted to using MES monohydrate (Sigma Aldrich). Following incubation, cells were washed 3 times with 200 uL in matched pH-adjusted PBS, spun at 400G for 4 min, and resuspended in 200 μL of pH adjusted buffer.
# To analyze antibody binding, fluorescent activated flow cytometry was performed using a BD Fortesa device for forward scatter, side scatter, and the mean fluorescent intensity (MFI) of the Cy5 channel was recorded using a […] laser excitation and 600/20 filter. Viable cells were gated by forward and side scatter, and singlets/doublet exclusion, and the MFI for Cy5 was quantified using FlowJo software Version 10.1.
# [2] = biological target: T2, directly coated FAP (FAP); assay: direct ELISA on directly coated FAP; assay type: binding
# Experimental: (§1) ELISA assays were performed with varying antibody concentrations to validate the binding of the exemplary antibodies of the present invention to FAP and to be able to determine their half maximal effective concentration (EC50). For the exemplary recombinant human NI-206-18H2, NI-206-20A8, NI-206-6D3, ‘NI-206-14C5, NI-206-34C11, NI-206.82C2, NI-206.59B4, NI-206.22F7, NI-206.27E8, NI-206.12G4 and NI-206.17A6 antibodies, 96-well microplates (Costar, Corning, USA) were coated with FAP, with a mixture of the 3 peptides or with BSA (Sigma-Aldrich, Buchs, Switzerland) diluted to a concentration of 5 μg/ml in carbonate ELISA coating buffer (15 mM Na2CO3, 35 mM NaHCO3, pH 9.4) for the direct ELISA. For the capture ELISA, the microplates were coated with mouse anti-His monoclonal antibody (Clontech) diluted to a concentration of 3 μg/ml in PBS, the plates were then blocked, FAP or BSA were diluted to a concentration of 2 μg/ml in PBS and added to the plates to be captured. The binding efficiency of the antibodies was then tested.
# (§2) The EC50 values were estimated by a non-linear regression using GraphPad Prism (San Diego, USA) software. […] The binding of NI-206.12G4 towards sFAP was not tested.
# [3] = biological target: T4, BSA (Bos taurus, UniProt P02769); assay: ELISA control binding to BSA; design: species or system bovine
# T4 construct: purchased Sigma-Aldrich
# T4 sequence (P02769 25-607): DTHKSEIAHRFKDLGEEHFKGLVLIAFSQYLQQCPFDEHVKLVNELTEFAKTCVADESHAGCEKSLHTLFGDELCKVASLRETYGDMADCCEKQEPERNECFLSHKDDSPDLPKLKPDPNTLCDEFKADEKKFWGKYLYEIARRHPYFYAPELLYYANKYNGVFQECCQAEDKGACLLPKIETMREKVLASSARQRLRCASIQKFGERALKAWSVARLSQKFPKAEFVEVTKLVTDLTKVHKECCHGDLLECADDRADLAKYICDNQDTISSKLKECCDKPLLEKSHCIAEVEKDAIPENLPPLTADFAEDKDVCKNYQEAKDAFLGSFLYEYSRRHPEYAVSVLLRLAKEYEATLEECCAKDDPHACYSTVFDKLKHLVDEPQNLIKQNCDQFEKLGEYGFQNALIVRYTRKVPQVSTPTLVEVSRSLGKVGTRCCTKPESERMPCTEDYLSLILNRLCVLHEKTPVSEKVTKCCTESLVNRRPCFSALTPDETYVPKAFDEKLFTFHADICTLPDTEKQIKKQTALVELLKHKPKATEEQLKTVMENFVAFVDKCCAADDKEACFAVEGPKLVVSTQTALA
# Experimental: as §1
# [4] = biological target: T3, captured FAP (sFAP); assay: capture ELISA, FAP captured via his-tag with coated anti-His antibody; assay type: binding
# Experimental: as §1, §2
# [5] = tested on: directly coated FAP peptides mixture (cFAP); assay: direct ELISA on coated mixture of FAP peptides; assay type: binding, human; details: peptides 378-392, 622-636, 721-736
# Experimental: as §1, §2
# [6] = ELISA, varying antibody concentrations
Molecule,paratope-specific avidity (ΔMFI) under acidic conditions vs. at pH 7.4 [1],EC50 to the directly coated FAP peptides mixture (cFAP) [5],also measured
B1,increased,did not show any binding,"binding to the directly coated FAP [2, 6]: specifically, strongly and similarly bind; binding to BSA [3]: does not bind; binding to the captured FAP [4, 6]: specifically, strongly and similarly bind"
B2,,did not show any binding,
B3,,,"EC50 to the directly coated FAP (FAP) ([2]; direct ELISA, non-linear regression, GraphPad Prism): did not show any binding; EC50 to the captured FAP (sFAP) ([4]; capture ELISA, non-linear regression, GraphPad Prism): did not show any binding"
B4,increased,did not show any binding,
B5,decreases,did not show any binding,
